This series is described as follows: yeast display, Sf9 membrane polyspecificity reagent, FACS + sequencing; frameworks hold sequencing errors. A digest of the protocol: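 Nanobodies came from a synthetic yeast display library in Saccharomyces cerevisiae BJ5465, induced with galactose for 36–48 hours and stained for 1 hour at 4 °C with 10% biotinylated, detergent-solubilized Sf9 membrane reagent. Cells were enriched on streptavidin microbeads and then FACS-sorted, with low and high (top ~1%) gates set on anti-HA fluorescence for expression and streptavidin fluorescence for reagent binding. Each polyreactivity label reflects the gate a clone came from. Genes were amplified by colony PCR, sequenced by MiSeq 2 × 250 and filtered by CDR length.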
As for “QVQLVESGGGLVQAGGSLRLSCAASGSTFYVYAMGWYRKAPGKEREFVAVITTSGGTTYYADSVKGRFTISRDNAKNTVYLQMNSLKPEDTAVYYCNAGVGYYSLPYDYWGQGTQVTVSS”, the “polyreactivity (PSR sort gate)” value is reported as “low polyreactivity”.
Take “QVQLVESGGGLVQAGGSLRLSCAASGRTFSRNAMGWYRQAPGKEREFVASISRSGTSTYYADSVKGRFTISRDNAKNTVYLQMNSLKPEDTAVYYCAKTYASSQGYDYWGQGTQVTVSS”: the “polyreactivity (PSR sort gate)” value is “high polyreactivity”.
Regarding “QVQLVESGGGLVQAGGSLRLSCAPSGNIFGYYVMAWYRQAPGTERELVAAITWSAGTTNYADSVKGRFTISRDNAKNTVYLQMNSLKPEDTAVYYFAVTWWYQDYDLTWYLYDYWGQGTEVTVSS”, the “polyreactivity (PSR sort gate)” value is “low polyreactivity”.
With “QVQLEESGGGLVLAGGSLRLSCAASGSTFYNYAKGCYREAPGKERELVAAITFTGGSTYYADSVKGRFTISRDNAKNTVYLQMNSLKPEDTAVYYCNRLGPLGDQQQYDYWGQGTQVTVSS”, the “polyreactivity (PSR sort gate)” value was “low polyreactivity”.
On to “QVQLVESGGGLVQAGGSLRLSCAASGSTFFTYTMGWYRQAPGKERELVARITSSGGSTYYADSVKGRFTISRDNAKNTVYLQMNSLKPEDTAVYYCNARYYSHPTYDYWGQGTQVTVSS”, for which the “polyreactivity (PSR sort gate)” value is “high polyreactivity”.
For the sequence “QVQLVESGGGLVQAGGSLRLSCAASGSISRLYAMRWYRQAPGKERELVARITSSGGRTYYADSVKGRFTISRDNAKNTVYLQMHSLKPEDTAVYYCAARGYVSVWRPYHWFVAGDYWGQGTQVTVSS”, the “polyreactivity (PSR sort gate)” value is recorded as “high polyreactivity”.
For the sequence “QVQLVESGGGLVQAGGSLRLSCAASGRILNVYAMGWYRQAPGKERELVAAINYRGTNTYYADSVKGRFTISRDNAKNTVYLQMNSLKPEDTADYYCAARRHVYLRGSTFEFNYWGQGTHVTVSS”, the “polyreactivity (PSR sort gate)” value is reported as “high polyreactivity”.
Consider “QVQLVESGGALVQAGGSLRLICAASGRTFQKYTMGWYRQAPGKERELVAAISKRGGSTYYADSVKGRFTISRDNAKNTVYLQMNSLKPEDTAVYYCATRVYRSAVSYDYWGQGTQVTVSS”, for which the “polyreactivity (PSR sort gate)” value is “high polyreactivity”.
For the sequence “QVQLVESGGGLVQAGGSLRLICAASGSTLYRNAMGWYRQARGKERELVAAISSSGGTTFYADSVKGRFTISRDNAKNTVYLQMNSLKPEDTAVYYCNRTARKLLTVHSSVVGLDYWGQGSQVTVSS”, the “polyreactivity (PSR sort gate)” value is recorded as “low polyreactivity”.
In the case of “QVQLEESGGGLVQAGGSLRISCAASVRTFKYYAMGWNRQAPGKETELVAAISWSGSSTSYADSVKGRFTISRDHAKNTVYLQMNSLKPEDTAVYYCAAATYRQFTGTYDYWGQGTQVTVSS” it was “high polyreactivity”; in that of “QVQLVESGGGLVQAGGSLRLSCAASGFTFGWNAMGWYRQAPGKERELVAAISWSGGSTYYADSVKGRFTISRDNAKNTVYLQMNSLKPEDTAVYYCAAYPAYGGDYWGQGTQVTVSS”, “high polyreactivity”; in that of “QVQHVESGGGLDQAGGSLRLSCAASGRIYCTNAMGWYRQAPGKESELVADITSGGSTNYADSVKGRFSISRDNAKNTVYLQMTSLKPEDTAVYYCAADVIGDLRWYRDEYWGQGTQVTVAS”, “low polyreactivity”.
Take “QVQLVESGGGLVQAGGSLRLSCAASGITFVHYAMGWYRQAPGKERELVAAISSGGGSTYYADSVKGRFTLSRDHAKNTGNLQMHSLNPEDTAVDNCAAYVLPYGEYDYWGQGTQVTVSS”: the “polyreactivity (PSR sort gate)” value was “low polyreactivity”.
In the case of “QVQLVESGGGLFQAGGSLRLSCAASGSTFQYNAMGWYRQAPGKERELVARITSGGRTDYADSVKGRFTITRDNAKNTVYLQMNSLKPEDTAVYYCAARYGYRGSTKYLSKPFYYWGQGTQVNVSS” it was “high polyreactivity”.
For “QVQLVESGGGLVQAGGSLRLSCAASGLIFPYYAMGWYRPAPGKERELVAAISRSGDSTYYADSVKGRFTISRDNAKNTVYLQMYSLKPEDTAVYYCAAVLSYSYVRYNYWGQGTQVNVSS”, the “polyreactivity (PSR sort gate)” value was “high polyreactivity”.
As for “QVQLVESGGGLVQAGGSLRLSCAASGITFWSNSMGWYRQAPGKERELVATITSSGGDNTNYADSVKGRFTISRDNAKNSVYLQMNSLKPEDTAVYYCNKEGQQSYRWRMDYWGQGTQVTVSS”, the “polyreactivity (PSR sort gate)” value is recorded as “low polyreactivity”.

These data come from the nanobody polyreactivity screen of Harvey et al. (2022).
